One block for each binder: values may come before it.
Key:
human topoisomerase IIα = human topoisomerase IIα (human, UniProt P11388 1-1531); experiment: pull-down
[1] = target: DNA topoisomerase II alpha (Homo sapiens, UniProt P11388 1-1531); experiment: EMSA
Sequence of DNA topoisomerase II alpha (P11388 whole entry): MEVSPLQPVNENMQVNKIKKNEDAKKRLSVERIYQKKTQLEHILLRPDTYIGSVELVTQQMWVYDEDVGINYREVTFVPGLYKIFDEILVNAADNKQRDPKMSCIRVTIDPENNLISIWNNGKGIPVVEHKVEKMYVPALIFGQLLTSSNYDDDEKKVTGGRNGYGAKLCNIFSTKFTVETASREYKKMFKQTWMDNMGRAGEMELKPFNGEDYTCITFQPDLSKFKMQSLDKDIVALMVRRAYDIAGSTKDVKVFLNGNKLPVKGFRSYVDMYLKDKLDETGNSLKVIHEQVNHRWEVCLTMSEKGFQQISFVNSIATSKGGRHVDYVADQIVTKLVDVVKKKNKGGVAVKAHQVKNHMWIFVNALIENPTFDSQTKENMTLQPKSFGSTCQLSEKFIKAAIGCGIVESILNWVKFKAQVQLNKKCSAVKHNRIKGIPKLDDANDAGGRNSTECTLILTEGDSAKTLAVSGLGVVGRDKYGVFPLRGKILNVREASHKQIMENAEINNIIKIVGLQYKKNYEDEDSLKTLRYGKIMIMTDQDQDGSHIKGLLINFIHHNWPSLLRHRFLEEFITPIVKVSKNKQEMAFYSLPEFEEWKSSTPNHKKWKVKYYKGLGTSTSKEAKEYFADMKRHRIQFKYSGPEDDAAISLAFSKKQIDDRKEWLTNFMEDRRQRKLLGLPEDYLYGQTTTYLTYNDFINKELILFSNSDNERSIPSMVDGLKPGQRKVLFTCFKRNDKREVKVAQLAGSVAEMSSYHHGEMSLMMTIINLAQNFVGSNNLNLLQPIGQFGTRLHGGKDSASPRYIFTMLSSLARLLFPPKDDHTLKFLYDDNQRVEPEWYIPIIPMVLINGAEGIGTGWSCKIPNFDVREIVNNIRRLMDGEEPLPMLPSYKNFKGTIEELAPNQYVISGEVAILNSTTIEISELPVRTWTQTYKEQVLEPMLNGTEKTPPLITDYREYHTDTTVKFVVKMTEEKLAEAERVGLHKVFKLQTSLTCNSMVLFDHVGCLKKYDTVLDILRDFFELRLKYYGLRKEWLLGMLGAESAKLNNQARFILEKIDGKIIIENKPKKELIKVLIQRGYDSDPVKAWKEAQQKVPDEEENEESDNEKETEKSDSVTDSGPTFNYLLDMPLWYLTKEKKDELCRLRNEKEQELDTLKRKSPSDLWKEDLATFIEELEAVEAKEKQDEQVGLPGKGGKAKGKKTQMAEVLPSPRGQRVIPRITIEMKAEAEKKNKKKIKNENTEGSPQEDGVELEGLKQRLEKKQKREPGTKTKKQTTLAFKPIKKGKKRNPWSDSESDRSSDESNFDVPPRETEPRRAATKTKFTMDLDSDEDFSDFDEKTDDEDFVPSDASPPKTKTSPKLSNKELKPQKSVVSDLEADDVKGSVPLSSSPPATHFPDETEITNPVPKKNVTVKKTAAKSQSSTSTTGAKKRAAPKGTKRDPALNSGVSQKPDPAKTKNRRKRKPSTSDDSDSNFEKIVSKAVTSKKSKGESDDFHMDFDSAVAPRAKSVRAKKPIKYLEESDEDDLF

Sequence of human topoisomerase IIα (P11388 whole entry): as above

B1: GST-HMGB1-ΔC (HMGB1 di-domain A+B, residues 1-180) (domain or fragment, rat, UniProt P63159 1-180, looked up)
chain: MGKGDPKKPRGKMSSYAFFVQTCREEHKKKHPDASVNFSEFSKKCSERWKTMSAKEKGKFEDMAKADKARYEREMKTYIPPKGETKKKFKDPNAPKRPPSAFFLFCSEYRPKIKGEHPGLSIGDVAKKLGEMWNNTAADDKQPYEKKAAKLKEKYEKDIAAYRAKGKPDAAKKGVVKAEK
binding result (human topoisomerase IIα): binds

B4: 36-bp duplex oligo_1/oligo_2 (dsDNA)
DNA 1: ATGAAATCTAACAATGCGCTCATCGTCATCCTCGGC
DNA 2: GCCGAGGATGACGATGAGCGCATTGTTAGATTTCAT
binding signal [1]: ~10 fold increase in topo IIα binding vs no HMGB1 (up to)

Results, then the binder that gave them:

binding result (human topoisomerase IIα): binds
B2: GST-HMGB1 domain B (residues 85-180) (domain or fragment, rat, UniProt P63159 85-180, looked up)
chain: TKKKFKDPNAPKRPPSAFFLFCSEYRPKIKGEHPGLSIGDVAKKLGEMWNNTAADDKQPYEKKAAKLKEKYEKDIAAYRAKGKPDAAKKGVVKAEK

binding result (human topoisomerase IIα): binds
B3: GST-HMGB1 domain A (residues 1-88) (domain or fragment, rat, UniProt P63159 1-88, looked up)
chain: MGKGDPKKPRGKMSSYAFFVQTCREEHKKKHPDASVNFSEFSKKCSERWKTMSAKEKGKFEDMAKADKARYEREMKTYIPPKGETKKK
